Measured values from the Immune Epitope Database (IEDB).

Legend:
HLA-B*18:01 [1] = test: IEDB peptide-MHC binding, purified MHC/competitive/radioactivity; filed as Kd, often an IC50 or EC50 that approximates it; ≥ and ≤ were set here for values at or beyond the usual limits of such assays
HLA-B*45:01 = test: as above
HLA-B*44:02 [2] = test: as above
HLA-B*40:02 = test: as above
HLA-B*44:03 = test: as above
HLA-B*40:01 [3] = test: as above
HLA-B*57:01 [4] = test: as above
HLA-B*46:01 [5] = test: IEDB peptide-MHC binding, purified MHC/competitive/fluorescence; filed as Kd, often an IC50 or EC50 that approximates it; ≥ and ≤ were set here for values at or beyond the usual limits of such assays
HLA-A*69:01 = test: IEDB peptide-MHC binding, purified MHC/direct/fluorescence; filed as Kd, often an IC50 or EC50 that approximates it; ≥ and ≤ were set here for values at or beyond the usual limits of such assays
HLA-B*48:01 = test: as above; conditions: source organism: West Nile virus
HLA-B*15:01 = test: as above; conditions: source organism: West Nile virus
HLA-B*46:01 [6] = test: as above; conditions: source organism: West Nile virus
HLA-B*18:01 [7] = test: as above; conditions: source organism: West Nile virus
HLA-A*03:01 = test: as above; conditions: source organism: West Nile virus
HLA-B*44:02 [8] = test: as above; conditions: source organism: West Nile virus
HLA-B*27:05 = test: as above; conditions: source organism: West Nile virus
HLA-A*02:01 = test: as above; conditions: source organism: West Nile virus
HLA-B*40:01 [9] = test: as above; conditions: source organism: West Nile virus
HLA-B*58:01 = test: as above; conditions: source organism: West Nile virus
HLA-B*07:02 = test: as above; conditions: source organism: West Nile virus
HLA-B*57:01 [10] = test: as above; conditions: source organism: West Nile virus
HLA-B*53:01 = test: IEDB peptide-MHC binding, purified MHC/competitive/radioactivity; filed as Kd, often an IC50 or EC50 that approximates it; ≥ and ≤ were set here for values at or beyond the usual limits of such assays; conditions: source organism: Dengue virus 4 Philippines/H241/1956
HLA-A*26:01 = test: as above; conditions: source organism: Dengue virus 2 Jamaica/1409/1983
HLA-A*01:01 = test: as above; conditions: source organism: Dengue virus 2 Jamaica/1409/1983
[11] = source organism: SARS coronavirus Tor2
[12] = source organism: Mammarenavirus machupoense
[13] = source organism: Dengue virus 2 Jamaica/1409/1983
[14] = source organism: Dengue virus 4 Philippines/H241/1956
[15] = source organism: Lymphocytic choriomeningitis virus (strain Armstrong)

## AEIVDTVSAL
HLA-B*18:01 [1]; [11]
  Kd: ≥ 23100 nM
HLA-B*45:01; [11]
  Kd: 287 nM
HLA-B*44:02 [2]; [11]
  Kd: 86.4 nM
HLA-B*40:02; [11]
  Kd: 2570 nM
HLA-B*44:03; [11]
  Kd: 105 nM
HLA-B*40:01 [3]; [11]
  Kd: 1.14 nM

## NDNFLMSNV
HLA-B*18:01 [1]; [12]
  Kd: ≥ 43600 nM
HLA-B*45:01; [12]
  Kd: ≥ 10000 nM
HLA-B*44:02 [2]; [12]
  Kd: 13100 nM
HLA-B*40:02; [12]
  Kd: 2990 nM
HLA-B*44:03; [12]
  Kd: 19600 nM
HLA-B*40:01 [3]; [12]
  Kd: ≥ 27600 nM

## RTSKKRSWPL
HLA-B*57:01 [4]; [13]
  Kd: 690 nM

## IAFCNWAFV
HLA-B*46:01 [5]; source organism: Vibrio cholerae 2740-80
  Kd: 4360 nM
HLA-A*69:01; source organism: Vibrio cholerae
  Kd: 60 nM

## IDYVPLKSAT
HLA-B*18:01 [1]; [11]
  Kd: ≥ 70500 nM
HLA-B*45:01; [11]
  Kd: 2050 nM
HLA-B*44:02 [2]; [11]
  Kd: ≥ 40000 nM
HLA-B*40:02; [11]
  Kd: ≥ 50600 nM
HLA-B*44:03; [11]
  Kd: ≥ 70100 nM
HLA-B*40:01 [3]; [11]
  Kd: ≥ 69600 nM

## STSQETWNRQ
HLA-B*57:01 [4]; source organism: Dengue virus 1 Brazil/97-11/1997
  Kd: 943 nM

## TRAVGKPLL
HLA-B*48:01
  Kd: ≥ 20000 nM
HLA-B*15:01
  Kd: ≥ 20000 nM
HLA-A*69:01; source organism: West Nile virus
  Kd: ≥ 20000 nM
HLA-B*46:01 [6]
  Kd: ≥ 20000 nM
HLA-B*18:01 [7]
  Kd: ≥ 20000 nM
HLA-A*03:01
  Kd: ≥ 20000 nM
HLA-B*44:02 [8]
  Kd: ≥ 20000 nM
HLA-B*27:05
  Kd: ≥ 20000 nM
HLA-A*02:01
  Kd: ≥ 20000 nM
HLA-B*40:01 [9]
  Kd: ≥ 20000 nM
HLA-B*58:01
  Kd: ≥ 20000 nM
HLA-B*07:02
  Kd: ≥ 20000 nM
HLA-B*57:01 [10]
  Kd: ≥ 20000 nM

## ISRDIMDAY
HLA-B*46:01 [5]; source organism: Bacillus cereus G9241
  Kd: 41.6 nM

## TEGLCVDIPG
HLA-B*18:01 [1]; [11]
  Kd: ≥ 70500 nM
HLA-B*45:01; [11]
  Kd: 74.8 nM
HLA-B*44:02 [2]; [11]
  Kd: ≥ 43300 nM
HLA-B*40:02; [11]
  Kd: 91.8 nM
HLA-B*44:03; [11]
  Kd: ≥ 34900 nM
HLA-B*40:01 [3]; [11]
  Kd: ≥ 69600 nM

## WEPEFYEAMY
HLA-B*18:01 [1]; [11]
  Kd: 1650 nM
HLA-B*45:01; [11]
  Kd: ≥ 52400 nM
HLA-B*44:02 [2]; [11]
  Kd: 2220 nM
HLA-B*40:02; [11]
  Kd: 7180 nM
HLA-B*44:03; [11]
  Kd: 377 nM
HLA-B*40:01 [3]; [11]
  Kd: 5410 nM

## EETFKLSYGI
HLA-B*18:01 [1]; [11]
  Kd: 19700 nM
HLA-B*45:01; [11]
  Kd: 2540 nM
HLA-B*44:02 [2]; [11]
  Kd: 76 nM
HLA-B*40:02; [11]
  Kd: 194 nM
HLA-B*44:03; [11]
  Kd: 130 nM
HLA-B*40:01 [3]; [11]
  Kd: 3580 nM

## KDMPGGYCL
HLA-B*18:01 [1]; [12]
  Kd: ≥ 38900 nM
HLA-B*45:01; [12]
  Kd: 18200 nM
HLA-B*44:02 [2]; [12]
  Kd: ≥ 42500 nM
HLA-B*40:02; [12]
  Kd: 235 nM
HLA-B*44:03; [12]
  Kd: ≥ 78100 nM
HLA-B*40:01 [3]; [12]
  Kd: 17700 nM

## SELVIGAVI
HLA-B*18:01 [1]; [11]
  Kd: 2590 nM
HLA-B*45:01; [11]
  Kd: 155 nM
HLA-B*44:02 [2]; [11]
  Kd: 605 nM
HLA-B*40:02; [11]
  Kd: 55.9 nM
HLA-B*44:03; [11]
  Kd: 426 nM
HLA-B*40:01 [3]; [11]
  Kd: 88.9 nM

## RFSTSLLFLN
HLA-B*57:01 [4]; [14]
  Kd: 1090 nM

## NDLQFGFGW
HLA-B*18:01 [1]; [15]
  Kd: 1800 nM
HLA-B*45:01; [15]
  Kd: ≥ 77700 nM
HLA-B*44:02 [2]; [15]
  Kd: 295 nM
HLA-B*40:02; [15]
  Kd: 10300 nM
HLA-B*44:03; [15]
  Kd: 38 nM
HLA-B*40:01 [3]; [15]
  Kd: ≥ 37800 nM

## EAVNDSRFW
HLA-B*53:01
  Kd: 13.2 nM
HLA-B*57:01 [4]; [14]
  Kd: 1260 nM

## ETSWHYDQDH
HLA-A*26:01
  Kd: ≥ 40900 nM
HLA-A*01:01
  Kd: ≥ 70400 nM
HLA-B*57:01 [4]; [13]
  Kd: 2310 nM
